Results from publication PMC4682817, “The Cardiac Stress Response Factor Ms1 Can Bind to DNA and Has a Function in the Nucleus”.

T1: Ms1 270-375 (AT-hook + ABD2) (rat, UniProt Q8K4K7 270-375)
T1 sequence: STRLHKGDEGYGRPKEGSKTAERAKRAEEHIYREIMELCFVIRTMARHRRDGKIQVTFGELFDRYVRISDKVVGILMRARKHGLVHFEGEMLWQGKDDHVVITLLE

B1: AT-hook oligo (dsDNA)
DNA 1: CGAATTAATTCG
DNA 2: CGAATTAATTCG
B2: wt oligo (dsDNA)
DNA 1: GACACAAACACAATAG
DNA 2: CTATTGTGTTTGTGTC
B3: A7G oligo (dsDNA)
DNA 1: GACACAGACACAATAG
DNA 2: CTATTGTGTCTGTGTC

Columns and labels:
[1] = biological target: T1, Ms1 270-375 (AT-hook + ABD2); assay: fluorescence titration (intrinsic Trp); details: EMSA buffer: 20 mM phosphate, 100 mM NaCl, 0.01% Triton X-100, pH 7.5, room temperature; fluorescence and NMR buffers not given in the material
[2] = biological target: T1, Ms1 270-375 (AT-hook + ABD2); assay: NMR titration; shifts in AT-hook only; 1:0.5 to 1:2; EMSA buffer: 20 mM phosphate, 100 mM NaCl, 0.01% Triton X-100, pH 7.5, room temperature; fluorescence and NMR buffers not given in the material; details: protein: recombinant; tags: N-terminal TEV-cleavable poly-His (pLEICS-07); self-complementary
[3] = biological target: T1, Ms1 270-375 (AT-hook + ABD2); assay: fluorescence titration (intrinsic Trp); EMSA buffer: 20 mM phosphate, 100 mM NaCl, 0.01% Triton X-100, pH 7.5, room temperature; fluorescence and NMR buffers not given in the material; details: protein: recombinant; tags: N-terminal TEV-cleavable poly-His (pLEICS-07)

| Molecule | Kd [3] [µM] | also measured |
| --- | --- | --- |
| scrambled oligo | – | Kd [1]: 31 µM |
| B1 | – | binding result [2]: binds |
| B2 | 8.2 ± 1 | – |
| B3 | 32 ± 5 | – |
